From patent US20220008508A1, “RELAXIN RECEPTOR 1 FOR USE IN TREATMENT AND PREVENTION OF HEART FAILURE” (Universität Heidelberg, priority 2018, published 2022)

Experiments:
[1] = system: TAC-induced heart failure in mice; assay: TAC heart failure model, echocardiography after AAV9-RXFP1 (rat) gene therapy with or without RLN pumps; type: in vivo, C57BL/6 mice; conditions: day 55, control AAV9.LUC virus, RLN pump
Description: Transverse aortic constriction (TAC) operation was previously described (Rockman et al., 1991, Proc. Natl. Acad. Sci. 88: 8277-8281). TAC model was used as heart failure model. 8 weeks old C57BL/6 mice were weighted prior to the operation. TAC operation was performed on day 0 using 26-gauge blunt needle effectively reducing the diameter of the transverse aorta to approximately 0.46 mm (Rockman et al., 1994, Proc. Natl. Acad. Sci. 91(7): 2694-2698). Cardiac function was assessed by echocardiography (Vevo 2100 VisualSonics) before TAC operation (day −2), before virus infusion (day 7), before pump implantation (day 28), and at 2-month follow up (day 55) (FIG. 1A and B). […] Osmotic pumps (Alzet 2004) were implanted on day 28 with animals randomized to get either saline or recombinant relaxin pumps. Follow up assessments were performed on day 55 and the animals were sacrificed 3 days later. In addition, 17 mice served as control animals which underwent sham operation, followed by either saline or recombinant relaxin pump implantation.
Echocardiography was performed using Vevo 2100, VisualSonics. The mice were shaved and held in prone position. […] The ejection fraction (EF), fractional shortening (FS), left ventricular internal diameter (LVIDd) and heart rate (HR) were calculated from 6 consecutive heartbeats in the M-mode using LV trace function.

[2] = Circulating plasma levels of recombinant relaxin H2 by ELISA; type: in vivo, mice; conditions: all animals receiving RLN by osmotic pump
Description: Circulating plasma levels of recombinant relaxin H2 were measured using a ready to use relaxin H2 Quantikine ELISA kit from R&D Systems (DLR200). Plasma samples were diluted 1:200 to stay within the detection range of the assay. 50 μL of negative control, positive control, standard and diluted samples were used for the measurement.

[3] = target: T1, huRXFP1 (Homo sapiens, UniProt Q9HBX9); assay: Pressure-volume loop hemodynamics in huRXFP1 TG animals after RLN administration; type: in vivo, mouse; conditions: RXFP1 transgenic animals vs WT animals, 10 μg RLN I.P.
T1 construct: FLAG huRXFP1 was cloned onto a place holder plasmid; expressed in transfected cells; host or cells: transgenic mice, cardiomyocyte expression under the alpha-MHC promoter (in vivo)
T1 sequence (Q9HBX9 with tags, fused parts or gaps): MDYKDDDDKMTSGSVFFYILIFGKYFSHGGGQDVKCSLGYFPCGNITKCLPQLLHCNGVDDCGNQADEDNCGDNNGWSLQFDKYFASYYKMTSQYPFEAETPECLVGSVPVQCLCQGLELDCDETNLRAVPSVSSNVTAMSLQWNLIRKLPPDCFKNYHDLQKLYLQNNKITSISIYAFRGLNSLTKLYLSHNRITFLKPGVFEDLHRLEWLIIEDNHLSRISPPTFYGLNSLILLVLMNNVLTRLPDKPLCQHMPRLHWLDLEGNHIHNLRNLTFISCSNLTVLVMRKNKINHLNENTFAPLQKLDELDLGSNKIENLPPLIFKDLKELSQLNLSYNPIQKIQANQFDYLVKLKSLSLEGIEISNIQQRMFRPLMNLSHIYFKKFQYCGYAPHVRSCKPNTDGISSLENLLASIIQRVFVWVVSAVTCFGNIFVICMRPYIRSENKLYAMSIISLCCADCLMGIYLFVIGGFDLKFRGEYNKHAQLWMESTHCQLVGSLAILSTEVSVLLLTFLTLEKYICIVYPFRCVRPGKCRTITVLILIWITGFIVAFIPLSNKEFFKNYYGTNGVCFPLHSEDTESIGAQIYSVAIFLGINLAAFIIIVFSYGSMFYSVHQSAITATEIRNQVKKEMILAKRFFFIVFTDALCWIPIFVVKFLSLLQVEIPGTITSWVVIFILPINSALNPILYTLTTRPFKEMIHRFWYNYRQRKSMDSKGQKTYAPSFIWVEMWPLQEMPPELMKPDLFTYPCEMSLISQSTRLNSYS
Description: Pressure-volume loop (PV loop) measurement was performed modified from Abraham and Mao (Abraham and Mao (2015), J. Vis. Exp. (103): e52942). The animal was anesthetized according to the body weight with a cocktail of medetomidine, midazolam, and fentanyl intraperitoneally 15 minutes prior to the measurements. After the righting reflex was lost, the mouse was secured to the operating table with surgical tape. Prior to the measurement, the catheter tip was equilibrated in warm saline for 30 minutes. The neck and chest area was cleaned with ethanol and the fur was removed. An incision was made over the right carotid from mandible to sternum. The surrounding tissue was dissected to expose the right carotid, and the vagus nerve, which runs adjacent to the carotid, was […]. Sterile 6.0 silk suture was placed around the distal end (away from the chest) of the carotid artery, tied and secured. An additional suture was placed below the first suture on the carotid artery. The second suture was loosely tightened and clamped the carotid artery proximally to the second suture. […] The PV loops were continuously recorded throughout the experiment until 10 minutes after administration of the tested substances.
minimum were calculated according to the manufacturer's recommendation (Transonic). […]

Question: For “RLN: recombinant relaxin H2 peptide hormone, RXFP1 agonist”, which “Ejection fraction (EF)” value [1] is on record?
Answer: The value was 47.79±13.38%.

Question: What about the “Fractional shortening (FS)” value [1] of the same substance?
Answer: Its value is 23.98±7.64.

Question: And the RLN plasma levels [2]?
Answer: The RLN plasma levels was “elevated”.

Question: And the “Heart rate (HR)” value [3]?
Answer: The value was “significant increase”.

Question: And the dP/dt maximum [3]?
Answer: The dP/dt maximum was “significant increase”.
